According to PMC9818449:

Molecular target: VN-HOXA9 (human) (UniProt P31269)
Test: split reporter (BiFC, NanoBiT); individual BiFC in live HEK293T cells: plix-VN-HOXA9, plix-CC-ORF and plix-mCherry co-transfected, 18 h with doxycycline 100 ng/mL, confocal imaging; HOXA9/PBX1 as calibrator

UniProt P31269, sequence (P31269 whole entry): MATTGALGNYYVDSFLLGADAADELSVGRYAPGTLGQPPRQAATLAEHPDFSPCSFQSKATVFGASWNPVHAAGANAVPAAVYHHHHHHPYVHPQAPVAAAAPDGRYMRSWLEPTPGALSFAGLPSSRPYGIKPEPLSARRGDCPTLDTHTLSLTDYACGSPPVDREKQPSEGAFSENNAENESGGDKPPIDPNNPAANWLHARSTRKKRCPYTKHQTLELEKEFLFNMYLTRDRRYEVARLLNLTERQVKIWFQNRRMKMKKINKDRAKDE

In the case of “CC-C6orf201 (from UniProt B3KW47 1-115) (natural protein)”, the BiFC fluorescence as percent of HOXA9/PBX1 BiFC is reported as < 15%.
